According to PMC7291599, “Defining the Threshold IL-2 Signal Required for Induction of Selective Treg Cell Responses Using Engineered IL-2 Muteins” (Frontiers in Immunology, 2020):
Positions count from the first letter of the chain named. Names may count otherwise.

B1: IL-2 mutein D20A H16R E61Q (Fc fusion) (Fc fusion, human, UniProt P60568 21-153, looked up)
chain: APTSSSTKKTQLQLERLLLALQMILNGINNYKNPKLTRMLTFKFYMPKKATELKHLQCLEQELKPLEEVLNLAQSKNFHLRPRDLISNINVIVLELKGSETTFMCEYADETATIVEFLNRWITFCQSIISTLT
notes: human interleukin-2 (IL-2), fused to the Fc of human IgG1 (N297G); H16 is H36 in P60568); Homodimeric Fc fusion, bivalent for IL-2; source: CHO K1, stably integrated, purified from culture media (MabSelect SuRe, desalting, Superdex 200 SEC)
B2: IL-2 mutein V91K D20A M104V (Fc fusion) (Fc fusion, human, UniProt P60568 21-153, looked up)
chain: B1 chain with R16H, Q61E, V91K, M104V
notes: as for B1

Legend:
[1] = target: T1, recombinant human IL2RB-huFc (human) (UniProt P14784)
T1 sequence (chain, minimally biotinylated): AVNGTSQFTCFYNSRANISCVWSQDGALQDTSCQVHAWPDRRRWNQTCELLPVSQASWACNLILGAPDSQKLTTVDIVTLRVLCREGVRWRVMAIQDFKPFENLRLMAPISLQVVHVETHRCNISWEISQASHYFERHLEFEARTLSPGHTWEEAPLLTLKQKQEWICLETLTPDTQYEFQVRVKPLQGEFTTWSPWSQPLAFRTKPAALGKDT

[2] = target: T2, Recombinant CD25 protein (IL-2R alpha chain) (human, UniProt P01589 22-240); assay: SPR; CD25 amine-coupled (EDC/NHS) to a CM5 chip, about 90 RU, Biacore T100; IL-2 Fc fusions as analytes, 3-fold series from 500 to 6.2 nM in PBS + 0.05% Tween-20, 75 uL/min; steady state RU levels fitted globally to a 4-parameter logistic function to derive EC50; conditions: both partners purified
T2 construct: IL-2 receptor alpha chain (CD25, IL2RA), recombinant, R&D Systems cat #223-2A/CF; source: bought: R&D Systems (cat #223-2A/CF)
T2 sequence (looked up): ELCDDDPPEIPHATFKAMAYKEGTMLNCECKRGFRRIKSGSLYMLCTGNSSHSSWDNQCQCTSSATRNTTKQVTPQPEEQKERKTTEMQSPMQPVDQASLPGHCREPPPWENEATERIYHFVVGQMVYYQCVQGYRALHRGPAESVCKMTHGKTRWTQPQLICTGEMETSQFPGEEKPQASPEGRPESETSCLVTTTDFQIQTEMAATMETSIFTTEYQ

Row | Molecule | pSTAT5 MFI EC50 in CD25hi Foxp3+ Treg cells, human whole blood assay (AVG EC50, n = 3 donors) [1] | EC50 [2] [nM]
1 | IL-2 mutein H16E M104L (Fc fusion) (from UniProt P60568 21-153) | 62 pM | 
2 | IL-2 mutein V91K D20A M104V (Fc fusion) (from UniProt P60568 21-153) | 4.76 nM | 
3 | IL-2 mutein D20G (Fc fusion) (from UniProt P60568 21-153) | 6.24 nM | 
4 | IL-2 mutein D20A H16R E61Q (Fc fusion) (from UniProt P60568 21-153) | 20.7 nM | 
5 | IL-2 mutein N88K (Fc fusion) (from UniProt P60568 21-153) | 23.3 nM | 
6 | IL-2 mutein D20A M104T (Fc fusion) (from UniProt P60568 21-153) | 1.67 nM | 
7 | IL-2 mutein H16E (Fc fusion) (from UniProt P60568 21-153) | 67 pM | 
8 | IL-2 mutein D20W (Fc fusion) (from UniProt P60568 21-153) | 20.9 nM | 
9 | IL-2 mutein N88D (Fc fusion) (from UniProt P60568 21-153) | 0.418 nM | 
10 | IL-2 mutein H16E E61Q (Fc fusion) (from UniProt P60568 21-153) | 2.34 nM | 
11 | IL-2 mutein V91S (Fc fusion) (from UniProt P60568 21-153) | 89 pM | 
12 | IL-2 mutein D20A (Fc fusion) (from UniProt P60568 21-153) | 1.21 nM | 
13 | B1 |  | 157
14 | B2 |  | 6
